Laboratory results published in patent US12702716B2, “Monocyte-specific aptamers and uses thereof for delivering therapeutic agents to heart” (Academia Sinica, priority 2020, dated 2026).

B1: S2: control aptamer, scrambled J10 sequence with same nucleotide composition, SEQ ID NO. 5 (nucleic acid)
DNA: CAATAGAGTCGTACAGGTCGTGAGAAGGCGTTGGTCTATCGGGGTCGTGGACTGTCCAAGGGCATGACCGGTCTGACGGTGGCCAGAGACGCAGGAGGGG
modifications: DNA, backbone and methylation of C not given here; Cy5 label
B2: J10: monocyte-specific DNA aptamer from cell-SELEX, SEQ ID NO. 4 (Table 2); Cy5-labeled for flow cytometry (nucleic acid)
DNA: CAATAGAGTCGTACAGGTCGACGCTCGGATGCCACTACAGGGATGGGAGGGAGGGGGCTCGTGGCGGCTAGGGGGTATAACTCATGGACGTGCTGGTGAC
modifications: DNA, backbone and methylation of C not given here; Cy5 label

Tests used:
[1] = test system: human monocyte cell line THP-1; test: Flow cytometry binding of Cy5-labeled aptamers to THP-1; settings: 200 nM Cy5-aptamer, 4° C., 30 minutes; FIG. 3
Experimental: (§1) To confirm that J10 binding, but not S2 binding, was selective to human monocytes in vitro, Cy5-labeled J10 and S2 were also incubated with the human monocyte cell lines, THP-1 and U937, and human umbilical cord endothelial cells (HUVEC), which were used as a negative control. In brief, 5×10^5 of each selected cell line was pre-mixed in a bloc king buffer (20% FBS and 10% salmon sperm DNA in PBS) at 4° C. for 30 minutes. After that, the cells were reacted with 200 nM Cy5-J10 or Cy5-S2 in the blocking buffer at 4° C. for 30 minutes. Finally, the sample was subjected to flow cytometry using standard protocols known in the art.

[2] = test system: human umbilical cord endothelial cells (HUVEC); test: Flow cytometry binding of Cy5-labeled aptamers to HUVEC (negative control); settings: 200 nM Cy5-aptamer, 4° C., 30 minutes; FIG. 3
Experimental: as §1

[3] = test system: RAW264.7 monocyte cell line; test: Flow cytometry binding of Cy5-labeled aptamers to RAW264.7; design: species or system mouse; settings: 200 nM Cy5-aptamer, 4° C., 30 minutes; FIG. 2A
Experimental: (§2) Cy5-labeled J10 and S2 were also incubated with the mouse endothelial cell line SVEC which was used as a negative selection. In brief, 5×10^5 of each selected cell line was pre-mixed in a bloc king buffer (20% FBS and 10% salmon sperm DNA in PBS) at 4° C. for 30 minutes. After that, the cells were reacted with 200 nM Cy5-J10 or Cy5-S2 in the blocking buffer at 4° C. for 30 minutes. Finally, the sample was subjected to flow cytometry using standard protocols known in the art.

[4] = test system: human monocyte cell line U937; test: Flow cytometry binding of Cy5-labeled aptamers to U937; settings: 200 nM Cy5-aptamer, 4° C., 30 minutes; FIG. 3
Experimental: as §1

[5] = test system: J774A.1 monocyte cell line; test: Flow cytometry binding of Cy5-labeled aptamers to J774A.1; design: species or system mouse; settings: 200 nM Cy5-aptamer, 4° C., 30 minutes; FIG. 2A
Experimental: as §2

[6] = test system: mouse endothelial cell line SVEC; test: Flow cytometry binding of Cy5-labeled aptamers to SVEC (negative selection); settings: 200 nM Cy5-aptamer, 4° C., 30 minutes; FIG. 2A
Experimental: as §2

[7] = test system: infarct area of the injured hearts; settings: mouse, iv
Experimental: as §2
To generate the murine I/R models, 8-10 weeks old mice were anesthetised with 80 mg/kg Zoletil 50 and 3.5 mg/kg Rompun and given O2 via a tracheal tube on the 37° C. heating pad. The heart was accessed via left thoracotomy between the third and fourth ribs. The left anterior descending coronary artery was temporarily ligated with sutures 7-0 polypropylene through polyethylene-10 tubing for 45 minutes. Subsequently, polyethylene-10 tubing was removed to induce myocardial ischemia/reperfusion injury. The success of the surgery was evaluated by echocardiography on the following day.

[8] = test system: circulating myeloid cells (CD45+ CD11b+ cells); test: Ex vivo binding to peripheral blood cells by flow cytometry; design: species or system mouse; settings: 2 μM Cy5-Apt, 30 minutes at 4° C., peripheral blood of healthy mice; FIG. 2D
Experimental: To test for ex vivo binding specificity and affinity, 100 μL peripheral blood from healthy mice was withdrawn via the submandibular vein, collected in EDTA-containing anticoagulant tubes (BD Vacutainer), and incubated with 2 mL ACK lysing buffer for 10 minutes to lyse the red blood cells. After that, 2% FBS in PBS was added to stop the reaction. Following centrifugation (300 g for 3 minutes at 4° C.) the supernatants were removed. One million cells were blocked by CD16/CD32 Fc blocking antibody (1:100; Invitrogen) after incubation for 20 minutes. Then the cells were stained for CD45 (PE-Cy7; 1:100; Biolegend), CD11b (PE; 1:200; Biolegend) and 2 μM Cy5-Apt for 30 minutes at 4° C. Finally, the cells were washed by 2% FBS in PBS and subjected to flow cytometry using standard protocols known in the art.

Molecule | binding affinity to THP-1 [1] | binding affinity to HUVEC [2] | percentage of Cy5-labeled monocytes (RAW264.7) [3] | binding affinity to U937 [4] | percentage of Cy5-labeled monocytes (J774A.1) [5] | detection of Cy5-labeled aptamer in SVEC [6] | in vivo targeting of aptamer to the injured site (PCR) [7] | affinity to circulating myeloid cells (CD45+ CD11b+ cells) [8]
B1 | no binding affinity | no binding affinity | but not S2, was capable of binding selectively to monocytes in vitro | no binding affinity | but not S2, was capable of binding selectively to monocytes in vitro | no detection | – | –
B2 | high binding affinity | but not human endothelial cell line HUVEC | significantly higher than the percentage of Cy5-labeled S2 monocytes | high binding affinity | significantly higher than the percentage of Cy5-labeled S2 monocytes | no detection | confirmed in vivo targeting ability | high affinity
